Positions count from the first letter of the chain named.
Legend:
[1] = molecular target: human CD3 on T cells (Jurkat cells; human peripheral blood CD4+ and CD8+ T cells) (human, UniProt P07766 23-207); experiment: cell-based or functional assay
[2] = molecular target: T1, human BCMA on cells (CHO-hBCMA clone 2C2; NCI-H929; RPMI-8226) (human, UniProt Q02223 1-184); experiment: cell-based or functional assay
T1 sequence (looked up): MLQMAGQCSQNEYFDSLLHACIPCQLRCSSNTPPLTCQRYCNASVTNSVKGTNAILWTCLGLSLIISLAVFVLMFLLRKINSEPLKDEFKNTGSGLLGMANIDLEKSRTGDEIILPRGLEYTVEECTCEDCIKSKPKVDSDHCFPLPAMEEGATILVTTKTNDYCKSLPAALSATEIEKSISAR

[3] = molecular target: T2, human BCMA-hFc kih monovalent recombinant protein (human, UniProt P0DOX5 223-449 = IgG part); experiment: SPR (Biacore T200), BCMA-hFc captured on Protein A chip, Fab as analyte, 1:1 Langmuir
T2 construct: Knob-into-hole heterodimer with one BCMA arm, expressed in HEK293E; also called human BCMA-hFc recombinant protein
From the text: Kinetic constants were fitted using Biacore T200 evaluation software with a Langmuir 1:1 kinetics model.
For Upregulation of CD25 (%), CD4+T in this document: test concentration or dose not given here.
For Upregulation of CD25 (%), CD8+T in this document: test concentration or dose not given here.
For Upregulation of CD69 (%), CD4+T in this document: test concentration or dose not given here.
For Upregulation of CD69 (%), CD8+T in this document: test concentration or dose not given here.

human CD3 on T cells (Jurkat cells; human peripheral blood CD4+ and CD8+ T cells), sequence (P07766 23-207): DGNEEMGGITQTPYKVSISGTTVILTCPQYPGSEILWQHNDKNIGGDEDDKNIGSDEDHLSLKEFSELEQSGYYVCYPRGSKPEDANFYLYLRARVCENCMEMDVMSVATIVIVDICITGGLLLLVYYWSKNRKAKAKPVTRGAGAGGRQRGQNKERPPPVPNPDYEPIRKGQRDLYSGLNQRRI

B1: h38E2-CD3 (bispecific antibody, V domains shown)
VH 1: QVQLVQSGAEVKKPGSSVKVSCKASGYTFTNYWIGWVREAPGQGLEWMGDIYPGSGDTNYNGKFQGRVTLTADISSNTAYMELSSLRSEDTAVYYCARSYYRNDAASFAYWGQGTLVTVSS
VL 1: DIQMTQSPSSLSASVGDRVTITCQASQDVDTAVAWYQKKPGKAPKLLIYWTSTRHTGVPSRFSGSGSGTDFTFTISSLQPEDIATYFCQQFSSYPLTFGQGTKVEIK
VH 2: EVQLVESGGGLVQPGGSLRLSCAASGFTFNTYAMNWVRKAPGKGLEWVGRIRSKYNNYATYYADSVKDRFTISRDDSKNSLYLQMNSLKTEDTAVYYCVRHGNFGNSYVSWFAYWGQGTLVTVSS
VL 2: QAVVTQEPSLTVSPGGTVTLTCRSSTGAVTTSNYANWVQEKPGQAPRGLIGGTNKRAPWTPARFSGSLLGGKAALTITGAQAEDEAEYYCVLWYSNLWVFGGGTKLTVL
Upregulation of CD25 (%), CD4+T [1]: 29% | Upregulation of CD25 (%), CD8+T [1]: 38% | Upregulation of CD25 EC50, CD4+T [1]: 3.65 nM | Upregulation of CD25 EC50, CD8+T [1]: 3.65 nM | Upregulation of CD69 (%), CD4+T [1]: 55% | Upregulation of CD69 (%), CD8+T [1]: 69% | Upregulation of CD69 EC50, CD4+T [1]: 7.4 nM | Upregulation of CD69 EC50, CD8+T [1]: 2.32 nM | Killing EC50 (TDCC, LDH release; PBMC + RPMI-8226) [2]: 13.6 nM

B2: h40C6-CD3 (bispecific antibody, V domains shown)
VH 1: QVQLVQSGSELKKPGASVKVSCKASGYIFTNFGMNWVREAPGQGLEWMGWINTYTGEQIYADDFKGRFAFSLDTSASTAYLQISSLKAEDTAVYFCARGEIYYGYDVGFVYWGQGTLVTVSS
VL 1: DIVLTQSPASLAVSPGQRATITCRASRSVTTSGYSYIHWYQKKPGQPPKLLIYLASDLEAGVPARFSGSGSGTDFTLTINPVEANDTANYYCQHSRELPWTFGQGTKVEIK
VH 2: B1 VH 2
VL 2: B1 VL 2
Upregulation of CD25 (%), CD4+T [1]: 25% | Upregulation of CD25 (%), CD8+T [1]: 28% | Upregulation of CD25 EC50, CD4+T [1]: 0.45 nM | Upregulation of CD25 EC50, CD8+T [1]: 0.49 nM | Upregulation of CD69 (%), CD4+T [1]: 37% | Upregulation of CD69 (%), CD8+T [1]: 44% | Upregulation of CD69 EC50, CD4+T [1]: 0.63 nM | Upregulation of CD69 EC50, CD8+T [1]: 0.21 nM | Killing EC50 (TDCC, LDH release; PBMC + RPMI-8226) [2]: 1.12 nM

B3: h23F8-CD3 (bispecific antibody, V domains shown)
VH 1: B2 VH 1 with I28T, E57D
VL 1: B2 VL 1 with R27K, T30S, I37M, D57N, A60S
VH 2: B1 VH 2
VL 2: B1 VL 2
Upregulation of CD25 (%), CD4+T [1]: 25% | Upregulation of CD25 (%), CD8+T [1]: 34% | Upregulation of CD25 EC50, CD4+T [1]: 0.57 nM | Upregulation of CD25 EC50, CD8+T [1]: 0.79 nM | Upregulation of CD69 (%), CD4+T [1]: 41% | Upregulation of CD69 (%), CD8+T [1]: 59% | Upregulation of CD69 EC50, CD4+T [1]: 0.44 nM | Upregulation of CD69 EC50, CD8+T [1]: 0.49 nM | Killing EC50 (TDCC, LDH release; PBMC + RPMI-8226) [2]: 0.81 nM

B4: 38E2 Fab (Fab, V domains shown)
VH: QVQLQQSGAELVRPGTSVKMSCKAAGYTFTNYWIGWVKQRPGHGLEWIGDIYPGSGDTNYNGKFKGKATLAADISSNAAYMQLSSLTSEDSAIYYCARSYYRNDAASFAYWGQGTLVTVSA
VL: DIVMTQSHKFMSTSVGDRVNITCKASQDVDTAVAWYQQKPSQSPKLLIYWTSTRHTGVPDRFTGSGSGTDFTLTISNVQSEDLADYFCQQFSSYPLTFGAGTKLELK
notes: Murine BCMA Fab, Ni-NTA purified
Kd [3]: 8.1 nM | koff [3]: 0.000798 s⁻¹ | kon [3]: 98800 M⁻¹ s⁻¹

B5: 15G9 Fab (Fab, V domains shown)
VH: QVQLQQSGPELVKPGASVNLSCKASGYTFTNYVIHWVKQKPGQGLEWIGYTIPYTDVTKYNEKFKAKATLTSDKSSSTAFMELSSLTSEDSAVYYCARYDFDGYFDYWGQGTTLTVSS
VL: DIVMTQAAFSNPVTLGTSASISCRSSKSLLHSNGITYLYWYLQKPGQSPQLLIYQMSNLASGVPDRFSSSGSGTDFTLRISRVEAEDVGVYYCAQNLELPWTFGGGTKLELK
notes: as for B4
Kd [3]: 12.2 nM | koff [3]: 0.0126 s⁻¹ | kon [3]: 1.03e+06 M⁻¹ s⁻¹

B6: 23G9 Fab (Fab, V domains shown)
VH: EVQLQQSGTVLTRPGASVKLSCKASGYSFSSYWMHWLKQRPGQGLEWIGAIYPGNSRTTYNQKFKGEAKLTADTSASTAYMDLSSLTNADSAVYFCTREETYWGQGTLVTVSA
VL: DVVMTQTPLSLSVTIGQPASISCKSSQGLLDSYGVTYLNWLFQRPGQPPKRLIYLVSELDSGVPDRFTGSGSGTDFTLRISRVEAEDLGIYYCWQGSHFPLTFGAGTKLELK
notes: as for B4
Kd [3]: 76.9 nM | koff [3]: 0.000313 s⁻¹ | kon [3]: 4070 M⁻¹ s⁻¹

B7: 29A11 Fab (Fab, V domains shown)
VH: EIQLVQSGPELKKPGETVKISCKASGYIFTNFGMNWVRQAPGKALKWMGWINTYTGEQIYADDFKGRFAFSLETSASTAYLQINNLKNEDTATYFCARGEIYYGYDVGFVYWGQGTLVTVSA
VL: DIVLTQSPASLAVSLGQRATISCRASKSVSTSGYSYMHWYQQKPGQPPKLLIYLASNLESGVPARFSGSGSGTDFTLNIHPVEEEDAATYYCQHSRELPWTFGGGTKLEIK
notes: as for B4
Kd [3]: 3.2 nM | koff [3]: 0.000243 s⁻¹ | kon [3]: 76400 M⁻¹ s⁻¹

B8: 38F9 Fab (Fab, V domains shown)
VH: B7 VH
VL: NIVLTQSPASLAVSLGQRATISCRASESVDSSGNSFMHWYQQKPGQPPKLLIYLESNLESGVPARFSGSGSRTDFTLTIEPVEADDAATYYCQQSNEDPWTFGGGTKLEIK
notes: as for B4
Kd [3]: 344 nM | koff [3]: 0.002 s⁻¹ | kon [3]: 5810 M⁻¹ s⁻¹

B9: 23F8 Fab (Fab, V domains shown)
VH: B7 VH with K23T, I28T, K46R, E57D
VL: B7 VL
notes: as for B4
Kd [3]: 5.6 nM | koff [3]: 0.000322 s⁻¹ | kon [3]: 57700 M⁻¹ s⁻¹

B10: 3G11 Fab (Fab, V domains shown)
VH: B7 VH
VL: B7 VL with A12T, N57D, P63S
notes: Murine BCMA Fab from phage library, expressed in TG1 periplasm, purified by Ni-NTA
Kd [3]: 13 nM | koff [3]: 0.000432 s⁻¹ | kon [3]: 33300 M⁻¹ s⁻¹

B11: 16B9 Fab (Fab, V domains shown)
VH: B7 VH with A40T, Q58T, R67L, T74V, S75P, Y105F, V110A
VL: B7 VL with A12T, M37I, N57D, I110L
notes: as for B4
Kd [3]: 4.1 nM | koff [3]: 0.000476 s⁻¹ | kon [3]: 117000 M⁻¹ s⁻¹

B12: 40C6 Fab (Fab, V domains shown)
VH: B7 VH
VL: B7 VL with V13I, K27R, S30T, M37I, N57D, S60A
notes: as for B4
Kd [3]: 6.4 nM | koff [3]: 0.000271 s⁻¹ | kon [3]: 42100 M⁻¹ s⁻¹

B13: 15H10 Fab (Fab, V domains shown)
VH: B7 VH with I2V, V5Q, I28T, A40T, E57D, Q58L, A61G, V110A
VL: B7 VL
notes: as for B4
Kd [3]: 18.3 nM | koff [3]: 0.00069 s⁻¹ | kon [3]: 37800 M⁻¹ s⁻¹

B14: 38D9 Fab (Fab, V domains shown)
VH: B7 VH with I2V, V5Q
VL: B7 VL with A12T, R24G, A55G, N57D
notes: as for B4
Kd [3]: 5.6 nM | koff [3]: 0.000329 s⁻¹ | kon [3]: 59100 M⁻¹ s⁻¹

B15: 34G2 Fab (Fab, V domains shown)
VH: B7 VH with I2V, V5Q, K12R, I28T, F32Y, R38K, A40T, A44G, Q58R
VL: B7 VL with A12V, K107R
notes: as for B4
Kd [3]: 5 nM | koff [3]: 0.000705 s⁻¹ | kon [3]: 142000 M⁻¹ s⁻¹

B16: 6G5 Fab (Fab, V domains shown)
VH: B7 VH
VL: B7 VL with V13I, S30T, M37I, N57D, S60A, I110L
notes: as for B4
Kd [3]: 2.1 nM | koff [3]: 6.13e-05 s⁻¹ | kon [3]: 29400 M⁻¹ s⁻¹
